Results: patent US8748104
pKd: −log10 of the molar value. Like-named read-outs stand apart in the source and are kept apart here.

Experiments:
skeletal Troponin I [1] = molecular target: skeletal Troponin I (UniProt P48788); settings: Luminex bead fluorescence assay, streptavidin-phycoerythrin detection; room temperature 1 h, PBS washes
skeletal Troponin I [2] = molecular target: skeletal Troponin I (UniProt P48788); settings: Luminex bead fluorescence assay, streptavidin-phycoerythrin detection; room temperature 1 h, PBS washes; remark: listed apart in the source

Chain of UniProt P48788 (P48788 2-182): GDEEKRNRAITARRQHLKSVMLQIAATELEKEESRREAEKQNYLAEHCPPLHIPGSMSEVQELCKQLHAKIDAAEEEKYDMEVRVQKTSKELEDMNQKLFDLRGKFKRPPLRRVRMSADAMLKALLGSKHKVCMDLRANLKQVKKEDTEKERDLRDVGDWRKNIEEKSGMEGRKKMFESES

Sequence | pKd (skeletal Troponin I [1]) | pKd (skeletal Troponin I [2])
GGGATGGGGTGGGTGGCCAGCGATT [SEQ ID NO: 1 aptamer] | 7.42 | 
TTAGGGGTGGTGTGGTTGGCAATTC [SEQ ID NO: 2 aptamer] |  | 8.30
